Assay results as given in the RNAGym collection of RNA variant scans (doi:10.1073/pnas.2313332121).

B1: TPR t1 (parent)
chain: GACCAAUCUGCCCUCAGAGCUCGAGAACAUCUUCGGAUGCAGAGGAGGCAGGCUUCGGUGGCGCGAUAGCGCCAACGUCCUCAACCUCCAAUGCAUCCCACCACAUGAUGAUGCCUGAAGAGCCUUGGUUUUUUG

Variants of: B1
Experiment: polymerase ribozyme fitness, log enrichment relative to wild type (log ratio); higher = more active; in vitro selection for triplet polymerase activity
How it was run: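 Mutant libraries were PCR-built and transcribed for each subunit of a heterodimeric triplet polymerase ribozyme and selected for one round in triplicate at −7 °C, frozen, before gel excision of extended constructs and streptavidin-bead capture. Input and output libraries were Illumina-sequenced, keeping genotypes with ≥10 input reads and ≥1 read per output. Fitness is a logarithmic ratio of genotype to wild-type enrichment, in base 2, using inverse-variance-weighted replicate averages.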

Variant	polymerase ribozyme fitness (log ratio)
G42U G63U	-3.48
G42C U112A	-0.562
A43U A46G U106A	-2.63
A43C C101G A121U	-2.62
G42C C70A	-4.99
A43G A84U	-1.9
G44A C49U G71A G117C U133G	-5.02
G44C U125A	-1.22
G44U C49A G77U G120C U130G	-2.08
A43U C56G G71U G120A	-4.58
A43G C70U G120U G128U	-3.88
G44A G52U G122A C123U C124G U130G	-1.46
A43U C53U G77U C85G U106A	-5.13
G44A G69C	-2.21
G44A A46U C85U C86G	-4.71
G42C G52A G60U C101U C104A	-5.59
G44A C49U A50C U78C U133G G135U	-1.75
G42U G47C C102A U112G G120U	-6.76
A43C G51U C82G A121U	-6.24
G44U C70A	-2.87
G44A C64U	-1.11
G44U G128U	-3.49
G42U C124U	-0.586
G42U C73U G117A	-3.05

Variant	polymerase ribozyme fitness (log ratio)
G42U U106A G120C	-2.14
A43G C62U C72A G113C	-2.93
G44A A46U G47C A74G	-1.99
G42C G93A C97U C115U	-5.15
A43G U55C C64U C72G	-2.14
A43C G61A C101G	-4.23
A43G C73U C79A U96G A118U	-4.39
A43G C80A C115G	-7.29
G44A A121U	1.03
G42C A91G U112A	-0.613
A43G C85G	-2.89
A43U G93C G117A	-4.2
G44C G69U U78C A95U C101U	-0.81
G44A G52A C56U	-1.35
A43U C123G	0.036
G44C G71A C82U A83C	-2.53
G44C G135U	-1.88
G44U C102G	-8.01
A43G C114G G135U	-3.37
G42U A66U	-2.91
G44U C53G G61C U81G C102U U132A	-3.53
G44A G45U G61U A83C	-1.59
A43G G61C	-4.3
G44U C64U C82U U106G G120A	-1.25

Variant	polymerase ribozyme fitness (log ratio)
G42U C53A A84C C86U A90U U131G U132C	-1.34
G44U G45A U54A	-3.42
A43U C56A	-1.69
A43G C82G U87C G93U	-6.73
G42U C53U C62U G110A	-3.9
G42U C64U	-1.54
G44A U59A G60U C89U A91G C104A C114U	-6.21
A43U G58U U126G	-3.62
G42U C56U C86U	-1.14
G44U G63C U78A	-0.651
G44U A50U C101A C115A	-2.8
G44A U55A C70A	-3.95
A43U G60U C82A G113A G128C	-4.46
G42C G57A	-3.88
G44C C102G A108C C114G G122A	-6.67
G44C U112G G120U G127C	-5.08
G42U A95G	-0.388
G44C C99U G110A	-6.64
A43U G57C C98U U126A	-4.59
A43G G44U C49G U96A	-2.32
A43G C62U C73U A84C U92A A118U U132C G135C	-2.69
A43C G61U C123G	-1.3
A43U G48U G61A	-1.54
G44U G60A	-0.946

Variant	polymerase ribozyme fitness (log ratio)
G44C G48U C53A G61C U112G	-6.03
G42U G110U	-3.71
A43U G45A C53U C56G A84U	-2.19
A43G C101U	-1.47
G44U C62A	-2.41
A43U G44C G63A	-2.96
A43U U54A C73U G77C	-1.92
A43U G71A	-2.46
A43U C104A A118U	-4.29
G44U G77C	-2.05
G44A C72G C80U C101U	-2.59
A43U C56G C114U	-2.92
G44A C70U C89A A100U U133C	-3.92
G44U G71A U130A	-2.12
G42U G47U C123G	-1.61
A43U U59A U134G	-1.56
G44A G51C	-5.22
A43G A100U	-2.72
A43U G60U C64G C73G C85U C98G C115U	-6.57
A43C C70U	-3.69
G42U C56G C73U G110A	-4.56
A43U G47C U92C G93C A121G	-0.371
G44C C76U U78A	-1.08
G44U C123U	0.929

Variant	polymerase ribozyme fitness (log ratio)
G44U C56G U92A C115A	-4.27
A43U G44A C115A C124A U125C U132A	0.582
A43C G44U G113A	-3.01
G42C G44U C64G G113U	-5.99
G42U G61U U92A C94A	-3.57
G42U G45A G110C	-5.34
A43C U59C C80A	-6.52
G44C G93U	-2.85
G44C G93A	-0.685
G44C C56U C79A C101U	-2.56
G42U C62U C64U A84G	-4.19
G44A G60C	0.513
A43G C56U	-1.77
G44A C53A C56A	-1.42
A43C C64U	-1.64
A43U C86U	-2.52
G42U G45C C76U	-2.43
G44A A50G C73U	-0.0837
G44U C70U U96A C104A	-4.6
A43U G60C C82A G113A G128C	-4.68
G44A C49U U106G	-5.12
A43G G61U C82G	-2.27
G42C A46U G60C	-2.77
G44U G69A C76A G120C	-6.09

Variant	polymerase ribozyme fitness (log ratio)
A43U A50G C72A G93C A95C C115U	-4.47
G44C U54A C64U C82U C114G	-4.69
G44U A95G C99U	-4.84
A43G G61A U78C G117U	-4.59
G44U G120U U130G	-1.7
G44U G77C A90U	-1.31
A43G U55C C62U U109A G135C	-5.8
G42U C62U	-1.69
A43U U131A	-1.44
G42C G44C C56U C104U	-0.811
A43G U87G	-0.843
G44A G63A	-2.44
A43C U55G G61C C79U C97U U116G	-5.31
G44C G63A A121G	0.865
G42U G120U	-1.31
G42U A74C G117U	-4.16
G42C G58A G120U	-1.82
A43G G51C C72U U78G C79A U112A	-5.74
A43C A46C C62U U87A C101U	-2.85
G42C G61U	-1.04
G42U G57U	-1.5
G42C G48A C72G G120A	-1.67
G42U U55G G117A	-3.02
A43C U54A	-2.54

Variant	polymerase ribozyme fitness (log ratio)
G42U G61C	-3.59
G44U C56A	-1.54
A43U C56A C85G	-3.95
A43C G71U C88A C123U	-3.41
G44A C94U U126G	-2.82
A43C U129G	-3.27
A43U C94A	-1.82
G44A G71C	-2.21
G44A C98A A111U	-5.83
A43G U54C C88U	-1.48
G44A U59A G63A C89G C115A C124A U129A	-5.52
G44U C64G	-7.29
G44A G57A A91G C101G G113U	-4.86
A43C G45U	-3.71
G44A G60U C72U A90U	-1.55
G44C G122A	-1.4
G42C G127U	-2.05
A43U G113A	-1.27
G42U U78C C94G A100C	-4.78
G44C A50C G60U	-1.12
G42C G117C	-4.02
A43G U109A	-6.81
G42C G61A C82U U116A	-4.34
